Results as given in PMC3298081 (Arteriosclerosis, Thrombosis, and Vascular Biology, 2012).

Molecular target: thrombospondin-1 (human, UniProt P07996 19-1170)
Test: ELISA

Chain of thrombospondin-1 (P07996 19-1170): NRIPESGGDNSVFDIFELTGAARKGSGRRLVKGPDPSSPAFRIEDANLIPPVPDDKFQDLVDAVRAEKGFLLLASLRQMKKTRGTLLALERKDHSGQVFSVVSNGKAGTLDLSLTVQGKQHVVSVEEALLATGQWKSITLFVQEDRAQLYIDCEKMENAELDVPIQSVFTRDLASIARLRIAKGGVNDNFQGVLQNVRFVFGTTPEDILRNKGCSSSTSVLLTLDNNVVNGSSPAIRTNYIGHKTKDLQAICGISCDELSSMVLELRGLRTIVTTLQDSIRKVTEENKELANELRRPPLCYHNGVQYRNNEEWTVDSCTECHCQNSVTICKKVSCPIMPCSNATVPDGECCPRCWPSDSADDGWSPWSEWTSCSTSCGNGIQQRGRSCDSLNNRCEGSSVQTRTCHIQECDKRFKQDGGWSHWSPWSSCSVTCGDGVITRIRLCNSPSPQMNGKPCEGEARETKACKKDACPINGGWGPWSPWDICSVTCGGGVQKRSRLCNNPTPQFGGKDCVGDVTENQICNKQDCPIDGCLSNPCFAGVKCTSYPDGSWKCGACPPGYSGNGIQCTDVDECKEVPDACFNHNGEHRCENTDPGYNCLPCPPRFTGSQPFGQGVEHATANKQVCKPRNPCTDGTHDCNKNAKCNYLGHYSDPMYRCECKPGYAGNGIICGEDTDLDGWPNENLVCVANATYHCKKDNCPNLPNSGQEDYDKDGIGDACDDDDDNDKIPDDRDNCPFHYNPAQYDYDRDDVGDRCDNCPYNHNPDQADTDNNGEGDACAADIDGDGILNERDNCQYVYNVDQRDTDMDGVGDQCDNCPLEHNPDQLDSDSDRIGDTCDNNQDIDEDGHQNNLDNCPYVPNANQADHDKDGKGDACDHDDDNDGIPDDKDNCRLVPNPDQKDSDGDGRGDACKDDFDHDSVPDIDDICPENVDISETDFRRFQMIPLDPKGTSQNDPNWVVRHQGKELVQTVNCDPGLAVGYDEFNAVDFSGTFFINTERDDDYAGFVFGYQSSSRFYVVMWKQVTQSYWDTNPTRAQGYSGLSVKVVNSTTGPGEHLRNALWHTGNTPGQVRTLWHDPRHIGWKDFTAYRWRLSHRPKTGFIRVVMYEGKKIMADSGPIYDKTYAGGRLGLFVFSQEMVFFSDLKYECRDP

B1: recombinant thioredoxin/extended CD36 CLESH domain fusion protein (non-phosphorylated) (domain or fragment, human, UniProt P16671 81-120, looked up)
chain: SNIQVKQRGPYTYRVRFLAKENVTQDAEDNTVSFLQPNGA
binding result: binds
